Measurements as given in US20250073302A1 (PURDUE RESEARCH FOUNDATION, published 2025).
Non-standard residues stand in square brackets, D forms with d. Bpa = N[C@@H](Cc1ccc(C(=O)c2ccccc2)cc1)C(=O)O; dBpa = N[C@H](Cc1ccc(C(=O)c2ccccc2)cc1)C(=O)O; dPhe(3,4-F2) = N[C@H](Cc1ccc(F)c(F)c1)C(=O)O; Phe(3-F) = N[C@@H](Cc1cccc(F)c1)C(=O)O; Phe(4-F) = N[C@@H](Cc1ccc(F)cc1)C(=O)O; dPhe(3-F) = N[C@H](Cc1cccc(F)c1)C(=O)O; dPhe(4-F) = N[C@H](Cc1ccc(F)cc1)C(=O)O; dPra = C#CC[C@@H](N)C(=O)O; Dap = NC[C@H](N)C(=O)O

B1: CyPPS31 (peptide)
peptide: cyclo(T[dL][Phe(3-F)][dF]R[dA])
SMILES: CC(C)C[C@H]1NC(=O)[C@H]([C@@H](C)O)NC(=O)[C@@H](C)NC(=O)[C@H](CCCNC(=N)N)NC(=O)[C@@H](Cc2ccccc2)NC(=O)[C@H](Cc2cccc(F)c2)NC1=O
B2: CyPPS28 (peptide)
peptide: cyclo(T[dV]F[dF]A[dR])
SMILES: CC(C)[C@H]1NC(=O)[C@H]([C@@H](C)O)NC(=O)[C@@H](CCCNC(=N)N)NC(=O)[C@H](C)NC(=O)[C@@H](Cc2ccccc2)NC(=O)[C@H](Cc2ccccc2)NC1=O
B3: CyPPS17 (peptide)
peptide: cyclo(T[dL]F[dY]R[dA])
SMILES: CC(C)C[C@H]1NC(=O)[C@H]([C@@H](C)O)NC(=O)[C@@H](C)NC(=O)[C@H](CCCNC(=N)N)NC(=O)[C@@H](Cc2ccc(O)cc2)NC(=O)[C@H](Cc2ccccc2)NC1=O
B4: CyPPS2 (peptide)
peptide: cyclo(A[dL]F[dF]R[dA])
SMILES: CC(C)C[C@H]1NC(=O)[C@H](C)NC(=O)[C@@H](C)NC(=O)[C@H](CCCNC(=N)N)NC(=O)[C@@H](Cc2ccccc2)NC(=O)[C@H](Cc2ccccc2)NC1=O
B5: CyPPS34 (peptide)
peptide: cyclo(TAF[dF]A[dR])
SMILES: C[C@@H]1NC(=O)[C@H]([C@@H](C)O)NC(=O)[C@@H](CCCNC(=N)N)NC(=O)[C@H](C)NC(=O)[C@@H](Cc2ccccc2)NC(=O)[C@H](Cc2ccccc2)NC1=O
B6: CyPPS22 (peptide)
peptide: cyclo(T[dL]F[dF]R[dS])
SMILES: CC(C)C[C@H]1NC(=O)[C@H]([C@@H](C)O)NC(=O)[C@@H](CO)NC(=O)[C@H](CCCNC(=N)N)NC(=O)[C@@H](Cc2ccccc2)NC(=O)[C@H](Cc2ccccc2)NC1=O
B7: CyPPS36 (peptide)
peptide: cyclo(A[dA]F[dF]A[dR])
SMILES: C[C@@H]1NC(=O)[C@@H](CCCNC(=N)N)NC(=O)[C@H](C)NC(=O)[C@@H](Cc2ccccc2)NC(=O)[C@H](Cc2ccccc2)NC(=O)[C@@H](C)NC1=O
B8: CyPPS7 (peptide)
peptide: cyclo(K[dL]F[dF]R[dA])
SMILES: CC(C)C[C@H]1NC(=O)[C@H](CCCCN)NC(=O)[C@@H](C)NC(=O)[C@H](CCCNC(=N)N)NC(=O)[C@@H](Cc2ccccc2)NC(=O)[C@H](Cc2ccccc2)NC1=O
B9: CyPPS11 (peptide)
peptide: cyclo(T[dK]F[dF]R[dA])
SMILES: C[C@H]1NC(=O)[C@H](CCCNC(=N)N)NC(=O)[C@@H](Cc2ccccc2)NC(=O)[C@H](Cc2ccccc2)NC(=O)[C@@H](CCCCN)NC(=O)[C@H]([C@@H](C)O)NC1=O
B10: CyPPS20 (peptide)
peptide: cyclo(T[dL]F[dPhe(3,4-F2)]R[dA])
SMILES: CC(C)C[C@H]1NC(=O)[C@H]([C@@H](C)O)NC(=O)[C@@H](C)NC(=O)[C@H](CCCNC(=N)N)NC(=O)[C@@H](Cc2ccc(F)c(F)c2)NC(=O)[C@H](Cc2ccccc2)NC1=O
B11: CyPPS19 (peptide)
peptide: cyclo(T[dL]F[dPhe(3-F)]R[dA])
SMILES: CC(C)C[C@H]1NC(=O)[C@H]([C@@H](C)O)NC(=O)[C@@H](C)NC(=O)[C@H](CCCNC(=N)N)NC(=O)[C@@H](Cc2cccc(F)c2)NC(=O)[C@H](Cc2ccccc2)NC1=O
B12: CyPPS32 (peptide)
peptide: cyclo(T[dL][Bpa][dF]R[dA])
SMILES: CC(C)C[C@H]1NC(=O)[C@H]([C@@H](C)O)NC(=O)[C@@H](C)NC(=O)[C@H](CCCNC(=N)N)NC(=O)[C@@H](Cc2ccccc2)NC(=O)[C@H](Cc2ccc(C(=O)c3ccccc3)cc2)NC1=O
B13: CyPPS5 (peptide)
peptide: cyclo(T[dL]F[dA]R[dA])
SMILES: CC(C)C[C@H]1NC(=O)[C@H]([C@@H](C)O)NC(=O)[C@@H](C)NC(=O)[C@H](CCCNC(=N)N)NC(=O)[C@@H](C)NC(=O)[C@H](Cc2ccccc2)NC1=O
B14: CyPPS4 (peptide)
peptide: cyclo(T[dL]A[dF]R[dA])
SMILES: CC(C)C[C@H]1NC(=O)[C@H]([C@@H](C)O)NC(=O)[C@@H](C)NC(=O)[C@H](CCCNC(=N)N)NC(=O)[C@@H](Cc2ccccc2)NC(=O)[C@H](C)NC1=O
B15: CyPPS12 (peptide)
peptide: cyclo(T[dI]F[dF]R[dA])
SMILES: CC[C@@H](C)[C@H]1NC(=O)[C@H]([C@@H](C)O)NC(=O)[C@@H](C)NC(=O)[C@H](CCCNC(=N)N)NC(=O)[C@@H](Cc2ccccc2)NC(=O)[C@H](Cc2ccccc2)NC1=O
B16: CyPPS16 (peptide)
peptide: cyclo(T[dL]Y[dF]R[dA])
SMILES: CC(C)C[C@H]1NC(=O)[C@H]([C@@H](C)O)NC(=O)[C@@H](C)NC(=O)[C@H](CCCNC(=N)N)NC(=O)[C@@H](Cc2ccccc2)NC(=O)[C@H](Cc2ccc(O)cc2)NC1=O
B17: CyPPS15 (peptide)
peptide: cyclo(T[dL][Phe(4-F)][dF]R[dA])
SMILES: CC(C)C[C@H]1NC(=O)[C@H]([C@@H](C)O)NC(=O)[C@@H](C)NC(=O)[C@H](CCCNC(=N)N)NC(=O)[C@@H](Cc2ccccc2)NC(=O)[C@H](Cc2ccc(F)cc2)NC1=O
B18: CyPPS3 (peptide)
peptide: cyclo(T[dA]F[dF]R[dA])
SMILES: C[C@H]1NC(=O)[C@H](CCCNC(=N)N)NC(=O)[C@@H](Cc2ccccc2)NC(=O)[C@H](Cc2ccccc2)NC(=O)[C@@H](C)NC(=O)[C@H]([C@@H](C)O)NC1=O
B19: CyPPS10 (peptide)
peptide: cyclo(T[dD]F[dF]R[dA])
SMILES: C[C@H]1NC(=O)[C@H](CCCNC(=N)N)NC(=O)[C@@H](Cc2ccccc2)NC(=O)[C@H](Cc2ccccc2)NC(=O)[C@@H](CC(=O)O)NC(=O)[C@H]([C@@H](C)O)NC1=O
B20: CyPPS21 (peptide)
peptide: cyclo(T[dL]F[dBpa]R[dA])
SMILES: CC(C)C[C@H]1NC(=O)[C@H]([C@@H](C)O)NC(=O)[C@@H](C)NC(=O)[C@H](CCCNC(=N)N)NC(=O)[C@@H](Cc2ccc(C(=O)c3ccccc3)cc2)NC(=O)[C@H](Cc2ccccc2)NC1=O
B21: CyPPS29 (peptide)
peptide: cyclo(T[dL]L[dF]R[dA])
SMILES: CC(C)C[C@@H]1NC(=O)[C@@H](CC(C)C)NC(=O)[C@H]([C@@H](C)O)NC(=O)[C@@H](C)NC(=O)[C@H](CCCNC(=N)N)NC(=O)[C@@H](Cc2ccccc2)NC1=O
B22: CyPPS30 (peptide)
peptide: cyclo(T[dL]R[dF]R[dA])
SMILES: CC(C)C[C@H]1NC(=O)[C@H]([C@@H](C)O)NC(=O)[C@@H](C)NC(=O)[C@H](CCCNC(=N)N)NC(=O)[C@@H](Cc2ccccc2)NC(=O)[C@H](CCCNC(=N)N)NC1=O
B23: CyPPS25 (peptide)
peptide: cyclo([dL]F[dF]K[dA])
SMILES: CC(C)C[C@H]1NC(=O)[C@@H](C)NC(=O)[C@H](CCCCN)NC(=O)[C@@H](Cc2ccccc2)NC(=O)[C@H](Cc2ccccc2)NC1=O
B24: CyPPS27 (peptide)
peptide: cyclo(TVF[dF]A[dR])
SMILES: CC(C)[C@@H]1NC(=O)[C@H]([C@@H](C)O)NC(=O)[C@@H](CCCNC(=N)N)NC(=O)[C@H](C)NC(=O)[C@@H](Cc2ccccc2)NC(=O)[C@H](Cc2ccccc2)NC1=O
B25: CyPPS35 (peptide)
peptide: cyclo(T[dA]F[dF]A[dR])
SMILES: C[C@@H]1NC(=O)[C@@H](Cc2ccccc2)NC(=O)[C@H](Cc2ccccc2)NC(=O)[C@@H](C)NC(=O)[C@H]([C@@H](C)O)NC(=O)[C@@H](CCCNC(=N)N)NC1=O
B26: CyPPS6 (peptide)
peptide: cyclo(T[dL]F[dF]A[dR])
SMILES: CC(C)C[C@H]1NC(=O)[C@H]([C@@H](C)O)NC(=O)[C@@H](CCCNC(=N)N)NC(=O)[C@H](C)NC(=O)[C@@H](Cc2ccccc2)NC(=O)[C@H](Cc2ccccc2)NC1=O
B27: CyPPS18 (peptide)
peptide: cyclo(T[dL]F[dPhe(4-F)]R[dA])
SMILES: CC(C)C[C@H]1NC(=O)[C@H]([C@@H](C)O)NC(=O)[C@@H](C)NC(=O)[C@H](CCCNC(=N)N)NC(=O)[C@@H](Cc2ccc(F)cc2)NC(=O)[C@H](Cc2ccccc2)NC1=O

Target: 20S core particle (CP) proteasome
Test: cell-based or functional assay

| Binder | TAS-1 (percent stimulation of 20S CP) |
| --- | --- |
| B1 | 199 % of DMSO |
| B2 | 289 % of DMSO |
| B3 | 203 % of DMSO |
| B4 | 241 % of DMSO |
| B5 | 126 % of DMSO |
| B6 | 298 % of DMSO |
| B7 | 185 % of DMSO |
| B8 | 226 % of DMSO |
| B9 | 101 % of DMSO |
| B10 | 283 % of DMSO |
| B11 | 287 % of DMSO |
| B12 | 242 % of DMSO |
| cyclo(T[dL]F[dF]R[dPra]) [CyPPS33] | 238 % of DMSO |
| cyclo(T[dL]F[dF][Dap][dR]) (also: AA5 described as D-Dap in one passage, DAP in another) [CyPPS24] | 370 % of DMSO |
| B13 | 170 % of DMSO |
| B14 | 275 % of DMSO |
| B15 | 124 % of DMSO |
| B16 | 198 % of DMSO |
| B17 | 280 % of DMSO |
| B18 | 178 % of DMSO |
| B19 | 173 % of DMSO |
| B20 | 278 % of DMSO |
| B21 | 152 % of DMSO |
| B22 | 212 % of DMSO |
| B23 | 297 % of DMSO |
| B24 | 109 % of DMSO |
| B25 | 259 % of DMSO |
| B26 | 305 % of DMSO |
| B27 | 246 % of DMSO |
